Measurements: patent US20240409617A1
Changes are numbered by the printed parent chain.

B1: S1-R3-T1-C4 (Ab_8) scFv-Fc (scFv, V domains shown)
VH: QVQLVQSGAEVKKPGSSVKVSCKASGGTFSSYAISWLRQAPGQGLEWMGWINPNSGGTNYAQKFQGRVTMTRDTSISTAYMELSRLRSDDTAVYYCARGSGGYYLGWGQGTLVTVSS
VL: QPGLTQPPSVSKGLRQTATLTCTGNSNNVGNQGAAWLQQHQGHPPKLLSYMNNNRPPGISERFSASRSGNTASLTITGLQPEDEADYYCSAWDSSLSRWVFGGGTKLSVL
B2: Ab_19 scFv-Fc (scFv, V domains shown)
VH: EVQLVESGAEVKKPGESLKISCKGSGYSFTSYWIGWVRQMPGKGLEWMGIIYPGDSDTRYSPSFQGQVTISADKSISTAYLQWSSLKASDTAMYYCARRGDLDAFDIWGQGTMVTVSS
VL: QPGLTQPPAASGTPGQRVTVSCSGASANIGSNAVSWFKQFPETAPRLLISGNTHRPSGVPDRVSGSKSGTSASLTISGLQSDDEADYYCAAWDDSLNGYVFGSGTKVTVL
B3: Ab_16 scFv-Fc (scFv, V domains shown)
VH: QVQLVQSGGGVVQPGRSLRLSCAASGFTFSNYGMHWVRQAPGKGLEWVALIWERGSKKDYADSVKGRFTVSRDNSKNTLYLQMNSLRPEDTAVYFCAREGISMTGAEYFQHWGQGTLVTVSS
VL: QSVLTQPPSVSGSPGQRVTMSCTGSSSNIGAGYDVHWYQQVPGAAPRLLIYGTNNRPSGVPDRFSGSKSGTSASLTITGLQAEDEADYYCQSYDNSLTDPYVFGTGTKVTVL
B4: Ab_17 scFv-Fc (scFv, V domains shown)
VH: QVQLVQSGGGVVQPGRSLRLSCAASGFTFDDYAMHWVRQVPGKGLEWVSGIDWNSGVIGYADSVKGRFTISRDNVKNSLYLQMNSLRTEDSALYYCAKDIGPGGSGSYYAFDIWGQGTTVTVSS
VL: QSALTQPASVSGSPGQSITISCTGTSSDVGGSKYVSWYQQHPGKAPKVMIYDVTKRPSGVPDRFSGSKSGNTASLTISGLQAEDEADYYCAAWDDSLNGVVFGGGTKLTVL
B5: Ab_26 scFv-Fc (scFv, V domains shown)
VH: QVQLVQSGGGLVQPGRSLRLSCAASGFTFDDYAMHWVRQVPGKGLEWVSGIDWNSGVIGYADSVKGRFTISRDNAKNSLYLQMNSLRAEDTALYYCAKDAYSYGFLGAFDIWGQGTMVTVSS
VL: LPVLTQPPSVSVAPGQTASITCGGDNIRTKGVHWYQQKPGQAPLLVIYYASDRPSGIPERFSGSSSGNTATLTISRVEAGDEADYYCQVWDSSSDLVVFGGGTTLTVL
B6: S1-RBD-R3-T1-B12 Ab (Ab_31) scFv-Fc (scFv, V domains shown)
VH: QVQLVQSGAEVKKPGSSVKVSCKASGGTFSSYTISWVRQAPGQGLEWMGGIIPILGTPNYAQKFQDRVAITADKSTSTAYMELSSLRSEDTAVYYCAVGSGWYSGFDYWGQGTLVTVSS
VL: NFMLTQPHSVSESPGKTVTISCTGSSGSIASNYVQWYQQRPGSAPTTVIYEDSQRPSGVPDRFSGSIDSSSNSASLTISGLKTEDEADYYCQSFHNSNPVIFGGGTKLTVL
B7: Ab_14 scFv-Fc (scFv, V domains shown)
VH: QVQLQQSGPGLVKPSQTLSLTCAISGDSVSSNSAAWNWIRQSPARGLEWLGRTYYRSRWYNDYAISMKSRITINPDTSKNQFSLQLESVTPEDTAVYYCAREIRGFDYWGQGTLVTVSS
VL: QSVLTQPPSASGSPGQSVTISCTGTSSDVGAYNFVSWYQHHPGKAPKLIIYDFNKRPSGVPDRFSGSKSGNTASLTVSGLQADDEADYYCSSYAGSNNFDVVFGGGTKLTVL
B8: RBD-R3-E1-A5 Ab (Ab_30) scFv-Fc (scFv, V domains shown)
VH: QVQLVQSGGGVVQPGKSLRLSCTASGFTFSDFPIHWVRQAPGKGLEWVGVISYDGNIKYYGDSVKGRFTISRDNAKNSLYLQMNSLRVEDTAVYYCARGGSSFDIWGQGTTVTVSS
VL: SYELTQPPSVSEAPRQRVTISCSGSTSNIGNNAVSWYQHLPGKAPKLLIYYNERLPSGVSDRFSGSKSGTSASLAISGLRSEDEADYYCAAWDDSLSGHVVFGGGTKLTVL
B9: Ab_21 scFv-Fc (scFv, V domains shown)
VH: QVQLVQSGGGLVQPGGSLRLSCATSGFTFDDYAMHWVRQAPGKGLEWVSGISWNSGSIGYVDSVKGRFTISRDNRNNKVYLQMNNLRAEDTAVYYCARDWWGSIDHWGLGTLVTVSS
VL: QSALTQPRSVSGSPGQSVTISCTGTSSDVGGYDYVSWYQQHPGKAPKLIIYDVSKRPSGVPDRFSGSKSGNTASLTVSGLQAEDEADYYCSSYTSSSPVVFGGGTKLTVL
B10: Ab2-7 IgG (antibody, V domains shown)
VH: QVTLKESGPTRVKPTQTLTLTCTFSGFSLSTTGVGVGWIRQPPGKALEWLALIYWNDDKRYSPSLKSRLTITKDTSKNQVVLTMTNMDPVDTATYYCARISGSGYFYPFDIWGQGTTVTVSS
VL: NFMLTQPHSVSESPGKTVTISCTRSSGSIASNYVQWYQQRPGSSPTTVIYEDNQRPSGVPDRFSGSIDSSSNSASLTISGLKAEDEADYYCQSYDSSSLWVFGGGTKLTVL
B11: Ab_28 scFv-Fc (scFv, V domains shown)
VH: QVTLKESGPGLVNPSETLSLTCTVSGASISNSFWSWIRQSPGKGLEWIGYTSYSGNSIYNPSLKSRLTMSIDTSKNQLSLNLRSLTAADTAVYYCARREWIKGHFDYWGQGTLVTVSS
VL: B6 VL with S26G, S53N, F94Y, H95D, N96S, I101V
B12: Ab_25 scFv-Fc (scFv, V domains shown)
VH: QVQLVQSGGGLVQPGGSLRLSCAASGFTFSSYWMSWVRQAPGKGLEWVANIKQDGSEKYYVDSVKGRFTISRDNAKNSLYLQMNSLRAEDTAVYYCARGFYYYGAFDIWGQGTTVTVSS
VL: B10 VL with R24G, S44A, D68G, A83T, S98N, L99H
B13: S1-RBD-R3-T1-F5 (Ab2-7) scFv-Fc (scFv, V domains shown)
VH: B10 VH
VL: B10 VL
B14: Ab_20 scFv-Fc (scFv, V domains shown)
VH: QVQLVQSGGGSVKPGGSLRLSCAASGYRLSDYYMHWVRQAPGKGLEWVANIKQDGSEKYYVDSVKGRFTISRDNAKNSLYLQMNSLRAEDTAVYYCARVRGWSRGYFDYWGQGTLVTVSS
VL: B10 VL with R24G, S44A, T77L, A83T, S98N, L99H
B15: S1-RBD-R3-T1-C7 Ab (Ab_29) scFv-Fc (scFv, V domains shown)
VH: QVQLQQSGPGLVKPSQTLSLTCAISGDSVSSYSDAWNWIRQSPSRGLEWLGRTYYRSKWYNDYAVSVKSRITINPDTSKNQFSLQLSSVTPEDTAVYYCAREIVATTPFRNYYYGMDVWGQGTTVTVSS
VL: B10 VL with K16N, S25T, Y50F, E51Q, N53K, Q54L, A83T
B16: Ab_13 scFv-Fc (scFv, V domains shown)
VH: B10 VH with T10K, R11L, T32S, N56D, T72A, N78Y, T117M, S122A
VL: B10 VL with S44A, A83T, S98N
B17: Ab_18 scFv-Fc (scFv, V domains shown)
VH: EVQLVQSGGGVVQPGRSLRVSCAASGFSFSRYGMHWVRQAPGKGLEWVAFIRHDGSKKYYADSVEGRFTISRDNSRNTVSLEMNSLRGEDTAVYYCAKDGRLEAALDDWGQGTLVTVSS
VL: NFMLTQPHSMSGSAGKTVTVSCIRSSGSIANNFVQWYQQRPGSAPTTVIYEDNQRPSGVPDRFSGSIDSSSNSASLTISGLKTEDEADYYCQSYDSSNLVFGGGTRLTVL
B18: Ab_27 scFv-Fc (scFv, V domains shown)
VH: QVQLVQSGTEVKKPGASVKVSCKASGYSFTGSHLHWVRQAPGQGLEWMGWINPDSGVINYAQKFQGRVTLTRDTSISTAYMELSGLRSDDTAVYYCARDKAIGYVWALDYWGQGTLVTVSS
VL: QSALTQPPSVSGSPGQSVTISCTGTSSDVGTYNRVSWYQQPPGKAPKLMIYEVSNRPSGVSNRFSGSKSGNTASLTISGLQAEDEADYYCSSYTRTFTYVFGTGTKVTVL
B19: RBD-R3-E1-B3 Ab (Ab_32) scFv-Fc (scFv, V domains shown)
VH: QVQLVQSGAEVKKPGESLKISCKGSGYSFTSYWIGWVRQMPGKGLEWMGIIYPGDSDTRYSPSFQGQVTISADKSISTAYLQWSSLKASDTAMYYCARGWQWHDYWGQGTLVTVSS
VL: QTVVTQEPAVSVALGQTVRITCQGDSLRSYYASWYQQKPGQAPVLVVYDKDKRPSGIPDRFSGSTSGNTASLTITGAQAEDEADYYCNSRDRSDNHVVFGGGTKLTVL
B20: Ab_23 scFv-Fc (scFv, V domains shown)
VH: EVQLVQSGAEVKKPGSSVKVSCRSSGGTFSTYGITWVRQAPGQGLEWMGRIIPSLGIPNYAQKFQGRVTITADTSVSTAWMELSSLESDDTAIYYCARENIDLATNDFWGQGTLVTVSS
VL: QSALTQPPSASGSPGQSVTISCTGTSRDIGAYGYVSWYQQVPGKAPKLIIYEVRNRPSGVSSRFSGSKSGNTASLTISGLQAEDEADYYCSSYTSSSTLDVVFGGGTKLTVL

Columns and labels:
[1] = molecular target: SARS-CoV-2 spike trimer, soluble (SARS-CoV-2)

Binder	Kd (D614G Spike (SARS-CoV2)) [pM]	Response (D614G Spike (SARS-CoV2))	Kd [1] [pM]	koff [1] [s⁻¹]	kon [1] [M⁻¹ s⁻¹]
B1	7.3	0.187			
B2	10.9	0.237			
B3	8.35	0.434			
B4	6.8	0.357			
B5	9.97	0.304			
B6	9.03	0.168			
B7	8.12	0.402			
B8	7.43	0.179			
B9	8	0.228			
B10			< 1	< 1e-07	4.31e+07
B11	9.41	0.199			
B12	8.56	0.0425			
B13	9.93	0.116			
B14	8.64	0.19			
B15	1.04	0.202			
B16	8.1	0.107			
B17	6.33	0.291			
B18	7.53	0.276			
B19	7.26	0.204			
B20	8.82	0.162			
